Experimental data taken from article PMC10055720.

Target: human TERT∆TEN D788R, FLAG-tagged, co-expressed with TR (human)

POT1–TPP1-stimulated processivity in the trans complementation primer extension assay, relative to WT: 64%
total telomerase activity in the trans complementation primer extension assay, relative to WT TERT∆TEN with TEN: 24 % of WT
Substance: human TERT TEN domain (aa 2–197), Myc-tagged (from UniProt O14746 2-197) (domain or fragment)
